# Patent publication US20140322218A1 (Amgen, published 2014)
# Positions count from the first letter of the chain named. Names may count otherwise.
# T1: raCDH19(1-43)::FLAG::raCDH19(44-770), on 293T cells (rat)
# T1 construct: Entry holds leader (1-43), Flag tag and CDH19 part; leader left out; also called Ra EC1-5
# T1 chain: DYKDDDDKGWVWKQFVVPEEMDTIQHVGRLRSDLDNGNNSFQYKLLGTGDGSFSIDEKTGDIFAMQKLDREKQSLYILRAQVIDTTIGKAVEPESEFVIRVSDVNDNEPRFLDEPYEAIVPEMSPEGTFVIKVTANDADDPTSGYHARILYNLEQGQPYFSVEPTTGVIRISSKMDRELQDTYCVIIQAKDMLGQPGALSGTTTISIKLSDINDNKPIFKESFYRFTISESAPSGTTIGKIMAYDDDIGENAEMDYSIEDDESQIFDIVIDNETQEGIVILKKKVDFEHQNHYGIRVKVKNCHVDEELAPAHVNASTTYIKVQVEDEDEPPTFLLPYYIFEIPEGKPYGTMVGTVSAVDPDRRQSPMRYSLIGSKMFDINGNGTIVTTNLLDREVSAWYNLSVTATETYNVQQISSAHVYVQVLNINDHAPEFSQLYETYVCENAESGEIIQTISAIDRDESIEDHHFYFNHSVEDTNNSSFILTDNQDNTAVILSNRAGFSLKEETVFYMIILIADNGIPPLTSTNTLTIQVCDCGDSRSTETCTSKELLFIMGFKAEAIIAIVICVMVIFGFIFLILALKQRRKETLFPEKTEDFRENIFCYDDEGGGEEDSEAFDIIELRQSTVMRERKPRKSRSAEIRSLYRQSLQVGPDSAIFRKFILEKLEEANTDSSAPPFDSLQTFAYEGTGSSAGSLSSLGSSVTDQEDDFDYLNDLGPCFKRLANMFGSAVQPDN
# T2: rhCDH19(1-43)::FLAG::rhCDH19(44-772), on 293T cells (rhesus macaque, UniProt Q9H159 44-772 (human entry))
# T2 construct: Entry holds leader (1-43), Flag tag and CDH19 part; leader left out; also called Rh EC1-5
# T2 chain: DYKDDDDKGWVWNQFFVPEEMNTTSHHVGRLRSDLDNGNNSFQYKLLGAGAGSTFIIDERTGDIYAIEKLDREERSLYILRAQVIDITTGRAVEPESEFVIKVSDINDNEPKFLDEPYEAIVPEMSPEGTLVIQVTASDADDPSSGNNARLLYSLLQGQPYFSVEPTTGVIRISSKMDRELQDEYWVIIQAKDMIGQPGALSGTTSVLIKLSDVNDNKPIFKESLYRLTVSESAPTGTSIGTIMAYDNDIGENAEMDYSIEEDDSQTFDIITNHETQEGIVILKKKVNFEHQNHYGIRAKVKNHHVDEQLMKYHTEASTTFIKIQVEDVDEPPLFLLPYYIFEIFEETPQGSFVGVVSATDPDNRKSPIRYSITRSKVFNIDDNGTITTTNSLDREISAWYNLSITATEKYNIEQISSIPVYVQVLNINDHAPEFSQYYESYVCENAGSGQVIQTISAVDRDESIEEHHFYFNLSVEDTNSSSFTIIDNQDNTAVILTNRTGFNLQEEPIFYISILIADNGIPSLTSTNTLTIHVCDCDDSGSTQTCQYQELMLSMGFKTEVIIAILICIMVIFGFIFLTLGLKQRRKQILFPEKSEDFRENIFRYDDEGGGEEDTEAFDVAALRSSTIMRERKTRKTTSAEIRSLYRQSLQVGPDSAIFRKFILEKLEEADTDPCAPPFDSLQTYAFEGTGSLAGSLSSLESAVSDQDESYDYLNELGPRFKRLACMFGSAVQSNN
# T3: (1-43)::FLAG::ckCDH19(44-468)::huCDH19(464-772), on 293T cells (human/chicken chimera)
# T3 construct: Entry holds leader (1-43), Flag tag and CDH19 part; leader left out; also called Hu EC5 (chicken backbone)
# T3 chain: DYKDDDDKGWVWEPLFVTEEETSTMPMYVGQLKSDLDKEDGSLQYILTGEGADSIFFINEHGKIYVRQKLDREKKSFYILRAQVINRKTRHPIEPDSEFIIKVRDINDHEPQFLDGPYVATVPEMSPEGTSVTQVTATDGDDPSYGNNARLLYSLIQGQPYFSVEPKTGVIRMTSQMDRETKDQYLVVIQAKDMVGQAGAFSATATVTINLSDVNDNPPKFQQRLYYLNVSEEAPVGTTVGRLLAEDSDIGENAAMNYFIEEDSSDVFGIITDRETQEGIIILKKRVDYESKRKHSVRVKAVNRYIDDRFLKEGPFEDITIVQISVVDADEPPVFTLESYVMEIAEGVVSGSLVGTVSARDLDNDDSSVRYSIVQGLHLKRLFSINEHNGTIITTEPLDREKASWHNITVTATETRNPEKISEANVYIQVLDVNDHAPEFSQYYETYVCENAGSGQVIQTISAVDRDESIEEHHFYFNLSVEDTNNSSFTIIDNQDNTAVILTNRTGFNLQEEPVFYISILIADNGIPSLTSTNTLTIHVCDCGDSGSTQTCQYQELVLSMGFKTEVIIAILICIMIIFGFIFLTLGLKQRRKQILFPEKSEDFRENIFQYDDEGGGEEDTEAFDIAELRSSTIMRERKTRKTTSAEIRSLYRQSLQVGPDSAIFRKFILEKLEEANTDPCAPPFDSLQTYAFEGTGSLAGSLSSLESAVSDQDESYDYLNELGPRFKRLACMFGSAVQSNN
# B1: hu anti-<huCDH19> 4A9 VH::huIgG1z / 4A9 VL::huLLC-C1 (Ab ID 13589) (antibody, V domains shown)
# VH: QVQLQESGPGLVKPSETLSLTCTVSGGSISGYYWSWIRQPPGKGLEWFAYFSYSGSTNYNPSLKSRVTLSVDTSKNQFSLKLSSVTAADTAVYYCARNWAFHFDFWGQGTLVTVSS
# VL: QSVLTQPPSVSGAPGQRVTISCTGSSSNIGTGYAVHWYQQFPGTAPKLLIYGNNNRPSGVPDRFSGSKSGTSASLAITGLQAEDEADYYCQSYDSRLSGWVFGGGTKLTVLG
# notes: Recombinant fully human IgG1
# B2: hu anti-<huCDH19> 25F8.1 (1-469)(F90Y) VH::huIgG1z / 25F8.1 (1-235)(K45Q,S102A,D111E) VL::huLLC-C2 (Ab ID 14096) (antibody, V domains shown)
# VH: QVQLVQSGAEVKKPGASVKVSCKASGYTFTSYYIHWVRQAPGQGLEWMGIINPSGGSTRYAQKFQGRVTMTRDTSTSTVYMELSSLRSEDTAVYYCARGGIQLWLHFDYWGQGTLVTVSS
# VL: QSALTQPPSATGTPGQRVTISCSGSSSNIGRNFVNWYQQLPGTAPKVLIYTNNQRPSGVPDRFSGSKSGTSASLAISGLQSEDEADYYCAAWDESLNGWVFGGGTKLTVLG
# notes: Engineered variant of 25F8
# B3: hu anti-<huCDH19> 26D1.1 VH::huIgG1z / 26D1.1 VL::huLLC-C2 (Ab ID 13882) (antibody, V domains shown)
# VH: B2 VH with G26R, I34M, H35S, N52H, S57D, R59T, R72G, Q102K
# VL: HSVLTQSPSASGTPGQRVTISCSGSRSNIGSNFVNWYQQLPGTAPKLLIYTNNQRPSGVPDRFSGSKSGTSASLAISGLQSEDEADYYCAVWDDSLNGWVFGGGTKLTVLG
# B4: anti-CDH19 antibody 2G6 (Ab ID 13588) (antibody, human IgG1, lambda, V domains shown)
# VH: QVQLVESGGGVVQPGRSLRLSCAASGFTFSSYGMHWVRQAPGKGLEWVAFIWYDGSNKYYADSVKDRFTISRDNSKNTLYLQMKSLRAEDTAVYYCARRAGIIGTIGYYYGMDVWGQGTTVTVSS
# VL: SYELTQPPSVSVSPGQTASITCSGDRLGEKYTCWYQQRPGQSPLLVIYQDTKRPSGIPERFSGSNSGNTATLTISGTQAMDEADYYCQAWDSSTVVFGGGTKLTVLG
# B5: hu anti-<huCDH19> 23A10.3 (1-474)(L92Q) VH::huIgG1z / 23A10.3 (1-231)(C42S) VL::huLLC-C2 (Ab ID 14077) (antibody, V domains shown)
# VH: B4 VH with S31R, M34I, F50V, D66G, K84N, T91S, I103P, I106T
# VL: B4 VL with T32V, C33S, R38K, L44I, T51N, R53W
# notes: Engineered variant of 23A10
# B6: hu anti-<huCDH19> 4B10 VH::huIgG1z / 4B10 VL::huKLC (Ab ID 13590) (antibody, V domains shown)
# VH: QVQLVESGGGVVQPGRSLRLSCAASGFTFSSYDMHWVRQAPGKGLEWVAVISYDGTNEYYADSVKGRFTISRDTSKNTLYLQMNSLRAEDTAVYYCARERYFDWSFDYWGQGTLVSVSS
# VL: EIVLTQSPGTLSLSPGERATLSCRASQSVSNTYLAWYHQRPGQAPRLLIYGASSRATGIPDRFSGSGSGTDFALTISSLEPEDFAVYYCQQYSNSWTFGQGTKVEIKR
# B7: anti-CDH19 antibody 4A2 (Ab ID 13592) (antibody, human IgG1, kappa, V domains shown)
# VH: QVQLQESGPGLVKPSQTLSLTCTVSGGSISSSGYYWSWIRQHPGKGLEWIGYIYYTGSAYYNPSLKSRVTISVDTSKNQFSLKLSSVTAADTAVYYCARDGSSGWYFQYWGQGTLVTVSS
# VL: EIVLTQSPGTLSLSPGERATLSCRASRNISSSYLAWYQQKPGQAPRLLIYGPSSRATGIPDRFSGSGSGTDFTLTISRLEPEDFTVYYCQQYGSSFTFGPGTKVDIKR
# Molecular target: T1, raCDH19(1-43)::FLAG::raCDH19(44-770), …
# Experiment: FACS, transfected 293T
# Procedure: (§1) The following binding assay was completed in presence of 2 mM CaCl2. […] Cells were then washed one time and the amount of cell associated Alexa647-labelled Ab was quantitated by flow cytometry. The experiments included mock transfected controls.
row,binding result,Binder
1,no binding (tested: 5 ug/ml),B1
2,no binding (tested: 5 ug/ml),B2
3,no binding (tested: 5 ug/ml),B3
4,binds,B4
5,binds,B5
6,binds,B6

# Molecular target: T2, rhCDH19(1-43)::FLAG::rhCDH19(44-772), …
# Experiment: FACS, transfected 293T
# Procedure: as §1
row,binding result,Binder
1,binds,B1
2,binds,B2
3,binds,B3
4,binds,B4
5,binds,B5
6,binds,B6
7,binds,B7

# Molecular target: T4, huCDH19(1-43)::FLAG::hu(44-141)::ckCDH19(142-776), on 293T cells (human/chicken chimera)
# T4 construct: Entry holds leader (1-43), Flag tag and CDH19 part; leader left out; also called Hu EC1 (chicken backbone)
# Experiment: FACS, transfected 293T
# Procedure: as §1
row,binding result,Binder
1,binds,B1
2,binds,B2
3,binds,B3
4,no binding (tested: 5 ug/ml),B4
5,no binding (tested: 5 ug/ml),B5
6,no binding (tested: 5 ug/ml),B6
7,no binding (tested: 5 ug/ml),B7

# Molecular target: T5, huCDH19(44-772), Flag-tagged, on 293T cells (human, UniProt Q9H159 44-772)
# T5 construct: Expressed with native leader (1-43) followed by a Flag tag; leader left out; also called Hu EC1-5
# Experiment: FACS, transfected 293T
# Procedure: as §1
row,binding result,Binder
1,binds,B1
2,binds,B2
3,binds,B3
4,binds,B4
5,binds,B5
6,binds,B6

# Molecular target: T3, (1-43)::FLAG::ckCDH19(44-468)::huCDH19(4 …)
# Experiment: FACS, transfected 293T
# Procedure: as §1
row,binding result,Binder
1,no binding (tested: 5 ug/ml),B1
2,no binding (tested: 5 ug/ml),B2
3,no binding (tested: 5 ug/ml),B3
4,no binding (tested: 5 ug/ml),B4
5,no binding (tested: 5 ug/ml),B5
6,no binding (tested: 5 ug/ml),B6
7,no binding (tested: 5 ug/ml),B7
